# Legend:
# [1] = target: BLUF-α3 (PAC-BLUF domain with the α3-helix of OaPAC, residues 1-126) (Oscillatoria acuminata); test: SEC; Superdex 200 Increase 10/300, PBS, room temperature, 50 μM, 100 μl injected; dark state and light state (column irradiated with a Xe lamp); mass calibrated with a gel filtration standard
# [2] = target: BLUF-α3 (PAC-BLUF domain with the α3-helix of OaPAC, residues 1-126) (Oscillatoria acuminata); test: transient grating (diffusion coefficient); 80 μM protein, 23 °C, excitation at 462 nm; diffusion coefficients of reactant (dark) and photoproduct (light) compared with those expected for monomer and dimer
# [3] = target: PAC-BLUF (BLUF domain of OaPAC, residues 1-102) (Oscillatoria acuminata); test: SEC; Superdex 200 Increase 10/300, PBS, room temperature, 50 μM, 100 μl injected; dark state and light state (column irradiated with a Xe lamp); mass calibrated with a gel filtration standard
# [4] = target: PAC-BLUF (BLUF domain of OaPAC, residues 1-102) (Oscillatoria acuminata); test: transient grating (diffusion coefficient); 80 μM protein, 23 °C, excitation at 462 nm; diffusion coefficients of reactant (dark) and photoproduct (light) compared with those expected for monomer and dimer
# [5] = target: full-length OaPAC (photoactivated adenylate cyclase from Oscillatoria acuminata) (Oscillatoria acuminata); test: SAXS; Photon Factory BL-15A2, flowing sample, dark state and light state (450 nm diode laser); molecular mass from the Guinier plot (80 kDa)
# [6] = target: full-length OaPAC (photoactivated adenylate cyclase from Oscillatoria acuminata) (Oscillatoria acuminata); test: SEC; Superdex 200 Increase 10/300, PBS, room temperature, 50 μM, 100 μl injected; dark state and light state (column irradiated with a Xe lamp); mass calibrated with a gel filtration standard
# [7] = target: full-length OaPAC (photoactivated adenylate cyclase from Oscillatoria acuminata) (Oscillatoria acuminata); test: transient grating (diffusion coefficient); 80 μM protein, 23 °C, excitation at 462 nm; diffusion coefficients of reactant (dark) and photoproduct (light) compared with those expected for monomer and dimer
substance,measurement,setting,value
"BLUF-α3 (PAC-BLUF domain with the α3-helix of OaPAC, residues 1-126) (domain or fragment)",stoichiometry N,[1],2
same,stoichiometry N,[2],2
"PAC-BLUF (BLUF domain of OaPAC, residues 1-102) (domain or fragment)",stoichiometry N,[3],2
same,stoichiometry N,[4],2
full-length OaPAC (photoactivated adenylate cyclase from Oscillatoria acuminata) (enzyme),stoichiometry N,[5],2
same,stoichiometry N,[6],2
same,stoichiometry N,[7],2

# From PMC10634658
